In paper PMC9352680, “A comprehensive thermodynamic model for RNA binding by the Saccharomyces cerevisiae Pumilio protein PUF4”:

T1: PUF4 RNA-binding domain (Saccharomyces cerevisiae, UniProt P25339 537-888)
T1 sequence: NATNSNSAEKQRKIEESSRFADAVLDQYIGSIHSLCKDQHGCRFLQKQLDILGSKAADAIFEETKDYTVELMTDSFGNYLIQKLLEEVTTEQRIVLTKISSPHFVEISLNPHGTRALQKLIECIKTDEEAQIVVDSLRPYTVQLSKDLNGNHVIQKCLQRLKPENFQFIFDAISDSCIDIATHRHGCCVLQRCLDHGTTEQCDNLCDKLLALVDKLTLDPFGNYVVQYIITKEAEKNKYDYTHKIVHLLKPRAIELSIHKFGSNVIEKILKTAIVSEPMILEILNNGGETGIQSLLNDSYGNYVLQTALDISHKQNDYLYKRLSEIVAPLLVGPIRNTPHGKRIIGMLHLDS


Target: T1, PUF4 RNA-binding domain
Test: Mg; RNA-MaP; 20 mM Na-HEPES pH 7.4, 30 mM KOAc, 0.75 mM MgCl2, 0.1% Tween-20, 5% glycerol, 0.1 mg/mL BSA, 2 mM DTT; 25 C; 0.0125-409.6 nM protein
Details: tags: N-His6-TEV cleaved; C-SNAP kept, Cy3B-labelled; label: tethered on chip by stalled RNA polymerase

| Binder | Kd |
| --- | --- |
| UCUCUUUUACACUUAUUAUAUCUCUU (ssRNA) [Id_ii_S1_P5E.4_K5.3_C5.2_[C-2T]_H5.3_A5.1_F5.1_T5.2] | > 2300 nM |
| UCUCUUGCACACUUAUUACGUCUCUU (ssRNA) [Id_ii_S1_P5E.4_K5.3_C5.2_[C-2G]_[T-1C]_H5.3_A5.1_F5.1_T5.2_[T11C]_[A12G]] | > 2300 nM |
| UCUCUUGCACACUUAUUACUUCUCUU (ssRNA) [Id_ii_S1_P5E.4_K5.3_C5.2_[C-2G]_[T-1C]_H5.3_A5.1_F5.1_T5.2_[T11C]_[A12T]] | 1530 nM |
| UCUCUUGUACACUUAUUAUUUCUCUU (ssRNA) [Id_ii_S1_P5E.4_K5.3_C5.2_[C-2G]_H5.3_A5.1_F5.1_T5.2_[A12T]] | 3.73 nM |
| UCUCUUGUACACUUAUUAGCUCUCUU (ssRNA) [Id_ii_S1_P5E.4_K5.3_C5.2_[C-2G]_H5.3_A5.1_F5.1_T5.2_[T11G]_[A12C]] | 5.16 nM |
| UCUCUUUAACACUUAUUAUUUCUCUU (ssRNA) [Id_ii_S1_P5E.4_K5.3_C5.2_[C-2T]_[T-1A]_H5.3_A5.1_F5.1_T5.2_[A12T]] | > 2300 nM |
| UCUCUUAGACACUUAUUACAUCUCUU (ssRNA) [Id_ii_S1_P5E.4_K5.3_C5.2_[C-2A]_[T-1G]_H5.3_A5.1_F5.1_T5.2_[T11C]] | > 2300 nM |
| UCUCUUUGUAUUACUGUCUCUU (ssRNA) [Ib_S1_P5E.1_K5.1_C5.1_H5.1_A5.1_F5.1_[T8C]_[A10G]_T5.1] | 71.2 nM |
| UCUCUUGCACACUUAUUACAUCUCUU (ssRNA) [Id_ii_S1_P5E.4_K5.3_C5.2_[C-2G]_[T-1C]_H5.3_A5.1_F5.1_T5.2_[T11C]] | 1210 nM |
| UCUCUUUGUAUUACUUUCUCUU (ssRNA) [Ib_S1_P5E.1_K5.1_C5.1_H5.1_A5.1_F5.1_[T8C]_[A10T]_T5.1] | 44.6 nM |
| UCUCUUGCACACUUAUUAUAUCUCUU (ssRNA) [Id_ii_S1_P5E.4_K5.3_C5.2_[C-2G]_[T-1C]_H5.3_A5.1_F5.1_T5.2] | 766 nM |
| UCUCUUGCACACUUAUUACCUCUCUU (ssRNA) [Id_ii_S1_P5E.4_K5.3_C5.2_[C-2G]_[T-1C]_H5.3_A5.1_F5.1_T5.2_[T11C]_[A12C]] | 1320 nM |
| UCUCUUAGACACUUAUUACCUCUCUU (ssRNA) [Id_ii_S1_P5E.4_K5.3_C5.2_[C-2A]_[T-1G]_H5.3_A5.1_F5.1_T5.2_[T11C]_[A12C]] | > 2300 nM |
| UCUCUUUCACACUUAUUACUUCUCUU (ssRNA) [Id_ii_S1_P5E.4_K5.3_C5.2_[C-2T]_[T-1C]_H5.3_A5.1_F5.1_T5.2_[T11C]_[A12T]] | > 2300 nM |
| UCUCUUGGACACUUAUUAUAUCUCUU (ssRNA) [Id_ii_S1_P5E.4_K5.3_C5.2_[C-2G]_[T-1G]_H5.3_A5.1_F5.1_T5.2] | > 2300 nM |
| UCUCUUUUACACUUAUUAUGUCUCUU (ssRNA) [Id_ii_S1_P5E.4_K5.3_C5.2_[C-2T]_H5.3_A5.1_F5.1_T5.2_[A12G]] | > 2300 nM |

| Binder | Kd |
| --- | --- |
| UCUCUUUCACACUUAUUAUUUCUCUU (ssRNA) [Id_ii_S1_P5E.4_K5.3_C5.2_[C-2T]_[T-1C]_H5.3_A5.1_F5.1_T5.2_[A12T]] | > 2300 nM |
| UCUCUUUAACACUUAUUACGUCUCUU (ssRNA) [Id_ii_S1_P5E.4_K5.3_C5.2_[C-2T]_[T-1A]_H5.3_A5.1_F5.1_T5.2_[T11C]_[A12G]] | > 2300 nM |
| UCUCUUCUUAUAUUAUUAUCUCUCUU (ssRNA) [Id_ii_S1_P5E.3_K5.2_C5.2_H5.2_A5.1_F5.1_T5.2_[A12C]] | 491 nM |
| UCUCUUUGACACUUAUUAUCUCUCUU (ssRNA) [Id_ii_S1_P5E.4_K5.3_C5.2_[C-2T]_[T-1G]_H5.3_A5.1_F5.1_T5.2_[A12C]] | > 2300 nM |
| UCUCUUUCACACUUAUUACCUCUCUU (ssRNA) [Id_ii_S1_P5E.4_K5.3_C5.2_[C-2T]_[T-1C]_H5.3_A5.1_F5.1_T5.2_[T11C]_[A12C]] | > 2300 nM |
| UCUCUUGUACACUUAUUACUUCUCUU (ssRNA) [Id_ii_S1_P5E.4_K5.3_C5.2_[C-2G]_H5.3_A5.1_F5.1_T5.2_[T11C]_[A12T]] | 5.88 nM |
| UCUCUUGUACACUUAUUAUAUCUCUU (ssRNA) [Id_ii_S1_P5E.4_K5.3_C5.2_[C-2G]_H5.3_A5.1_F5.1_T5.2] | 3.91 nM |
| UCUCUUUGUAUUAUGUUCUCUU (ssRNA) [Ib_S1_P5E.1_K5.1_C5.1_H5.1_A5.1_F5.1_[T9G]_[A10T]_T5.1] | 10.8 nM |
| UCUCUUUCACACUUAUUAUAUCUCUU (ssRNA) [Id_ii_S1_P5E.4_K5.3_C5.2_[C-2T]_[T-1C]_H5.3_A5.1_F5.1_T5.2] | > 2300 nM |
| UCUCUUUCACACUUAUUAAUUCUCUU (ssRNA) [Id_ii_S1_P5E.4_K5.3_C5.2_[C-2T]_[T-1C]_H5.3_A5.1_F5.1_T5.2_[T11A]_[A12T]] | > 2300 nM |
| UCUCUUUAACACUUAUUACUUCUCUU (ssRNA) [Id_ii_S1_P5E.4_K5.3_C5.2_[C-2T]_[T-1A]_H5.3_A5.1_F5.1_T5.2_[T11C]_[A12T]] | > 2300 nM |
| UCUCUUGUACACUUAUUAAAUCUCUU (ssRNA) [Id_ii_S1_P5E.4_K5.3_C5.2_[C-2G]_H5.3_A5.1_F5.1_T5.2_[T11A]] | 3.63 nM |
| UCUCUUGCACACUUAUUAACUCUCUU (ssRNA) [Id_ii_S1_P5E.4_K5.3_C5.2_[C-2G]_[T-1C]_H5.3_A5.1_F5.1_T5.2_[T11A]_[A12C]] | 1890 nM |
| UCUCUUUCACACUUAUUAAAUCUCUU (ssRNA) [Id_ii_S1_P5E.4_K5.3_C5.2_[C-2T]_[T-1C]_H5.3_A5.1_F5.1_T5.2_[T11A]] | > 2300 nM |
| UCUCUUGCACACUUAUUAUCUCUCUU (ssRNA) [Id_ii_S1_P5E.4_K5.3_C5.2_[C-2G]_[T-1C]_H5.3_A5.1_F5.1_T5.2_[A12C]] | 1160 nM |
